Measurements reported in patent US20250250357A1 (NANJING ZAIMING PHARMACEUTICAL, published 2025).

T1: human MSLN-R1-his protein (human, UniProt Q13421 296-390)
T1 construct: Made in HEK293E cells, purified on nickel column; also called hMSLN-R1-his; human MSLN-R1 protein; not shown: His tag
T1 chain: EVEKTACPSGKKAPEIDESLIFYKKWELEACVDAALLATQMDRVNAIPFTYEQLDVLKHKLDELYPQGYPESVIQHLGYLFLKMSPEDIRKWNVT

T2: human MSLN-R1-his protein (human, UniProt Q13421 296-390)
T2 construct: Region 1 of human mesothelin, made in HEK293E cells, His-tagged; also called human MSLN-R1 protein; hMSLN-R1-his; not shown: His tag
T2 chain: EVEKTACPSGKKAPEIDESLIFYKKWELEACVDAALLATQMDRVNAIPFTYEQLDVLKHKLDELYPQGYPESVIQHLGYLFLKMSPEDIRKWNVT


Key:
[1] = target: T3, human MSLN-FL-his protein (human, UniProt Q13421 296-580); assay: ELISA, coated antigen, antibody 200 nM
T3 construct: Made in HEK293E cells, purified on nickel column; also called hMSLN-FL-his; human MSLN full-length protein; not shown: His tag
T3 sequence (Q13421 other isoform, or with tags, fused parts or gaps): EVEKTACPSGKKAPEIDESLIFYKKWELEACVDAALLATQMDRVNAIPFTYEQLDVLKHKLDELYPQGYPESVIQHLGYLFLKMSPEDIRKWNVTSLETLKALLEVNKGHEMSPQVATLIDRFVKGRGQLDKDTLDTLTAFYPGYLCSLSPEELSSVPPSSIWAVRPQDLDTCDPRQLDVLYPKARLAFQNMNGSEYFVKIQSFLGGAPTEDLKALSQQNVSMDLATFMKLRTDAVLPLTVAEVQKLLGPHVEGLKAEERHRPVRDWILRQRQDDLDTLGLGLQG

[2] = target: T3, human MSLN-FL-his protein; assay: ELISA, coated antigen, antibody 0.002 nM
[3] = target: T1, human MSLN-R1-his protein; assay: ELISA, coated antigen, antibody 2 nM
Protocol: (§1) The plate was sealed with a plastic film and incubated at 4° C. overnight. The next day, the plate was washed twice with PBST, and a blocking buffer [PBS+2% (w/w) BSA] was added for blocking at room temperature for 2 h. The blocking buffer was discarded, and a chimeric antibody or negative control antibody serially diluted from 100 nM was added at 50 μL/well. After incubation at 37° C. for 2 h, the plate was washed 3 times with PBST. […] After incubation at 37° C. for 2 h, the plate was washed 5 times with PBST. A TMB substrate was added at 50 μL/well for incubation at room temperature for 5-10 min, and then a stop solution (1.0 N HCl) was added at 50 μL/well.

[4] = target: T3, human MSLN-FL-his protein; assay: ELISA, coated antigen, antibody 0.02 nM
[5] = target: T3, human MSLN-FL-his protein; assay: ELISA, coated antigen, antibody 0.0002 nM
Protocol: as §1

[6] = target: T1, human MSLN-R1-his protein; assay: ELISA, coated antigen, antibody 200 nM
Protocol: as §1

[7] = target: T1, human MSLN-R1-his protein; assay: ELISA, coated antigen, antibody 20 nM
Protocol: as §1

[8] = target: T1, human MSLN-R1-his protein; assay: ELISA, coated antigen, antibody 0.002 nM
Protocol: as §1

[9] = target: T1, human MSLN-R1-his protein; assay: ELISA, coated antigen, no antibody (blank)
Protocol: as §1

[10] = target: T1, human MSLN-R1-his protein; assay: ELISA, coated antigen, antibody 0.2 nM
Protocol: as §1

[11] = target: T3, human MSLN-FL-his protein; assay: ELISA, coated antigen, antibody 20 nM
[12] = target: T3, human MSLN-FL-his protein; assay: ELISA, coated antigen, antibody 0.2 nM
Protocol: as §1

[13] = target: T1, human MSLN-R1-his protein; assay: ELISA, coated antigen, antibody 0.02 nM
Protocol: as §1

[14] = target: T3, human MSLN-FL-his protein; assay: ELISA, coated antigen, no antibody (blank)
Protocol: as §1

[15] = target: T1, human MSLN-R1-his protein; assay: ELISA, coated antigen, antibody 0.0002 nM
Protocol: as §1

[16] = target: T3, human MSLN-FL-his protein; assay: ELISA, coated antigen, antibody 2 nM
Protocol: as §1

[17] = target: T2, human MSLN-R1-his protein; assay: ELISA on coated MSLN-R1; antibody 0.1 nM
[18] = target: T2, human MSLN-R1-his protein; assay: ELISA on coated MSLN-R1; antibody 0.0001 nM
[19] = target: T2, human MSLN-R1-his protein; assay: ELISA on coated MSLN-R1; antibody 10 nM
[20] = target: T4, human MSLN-R2-his protein (human, UniProt Q13421 391-486); assay: ELISA on coated MSLN-R2; antibody 0.01 nM
T4 construct: Region 2 of human mesothelin, made in HEK293E cells, His-tagged; also called human MSLN-R2 protein; hMSLN-R2-his; not shown: His tag
T4 sequence (Q13421 other isoform, or with tags, fused parts or gaps): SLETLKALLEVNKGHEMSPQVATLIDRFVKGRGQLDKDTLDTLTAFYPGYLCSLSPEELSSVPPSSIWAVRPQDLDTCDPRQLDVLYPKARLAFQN

[21] = target: T4, human MSLN-R2-his protein; assay: ELISA on coated MSLN-R2; antibody 0.001 nM
[22] = target: T2, human MSLN-R1-his protein; assay: ELISA on coated MSLN-R1; no antibody (blank)
[23] = target: T4, human MSLN-R2-his protein; assay: ELISA on coated MSLN-R2; antibody 1 nM
Protocol: as §1

[24] = target: T2, human MSLN-R1-his protein; assay: ELISA on coated MSLN-R1; antibody 0.001 nM
Protocol: as §1

[25] = target: T2, human MSLN-R1-his protein; assay: ELISA on coated MSLN-R1; antibody 100 nM
Protocol: as §1

[26] = target: T4, human MSLN-R2-his protein; assay: ELISA on coated MSLN-R2; no antibody (blank)
[27] = target: T2, human MSLN-R1-his protein; assay: ELISA on coated MSLN-R1; antibody 1 nM
[28] = target: T4, human MSLN-R2-his protein; assay: ELISA on coated MSLN-R2; antibody 0.1 nM
[29] = target: T4, human MSLN-R2-his protein; assay: ELISA on coated MSLN-R2; antibody 10 nM
Protocol: as §1

[30] = target: T4, human MSLN-R2-his protein; assay: ELISA on coated MSLN-R2; antibody 0.0001 nM
Protocol: as §1

[31] = target: T4, human MSLN-R2-his protein; assay: ELISA on coated MSLN-R2; antibody 100 nM
Protocol: as §1

[32] = target: T2, human MSLN-R1-his protein; assay: ELISA on coated MSLN-R1; antibody 0.01 nM
Protocol: as §1

[33] = target: T5, human MSLN-R3-his protein (human, UniProt Q13421 487-598); assay: ELISA on coated MSLN-R3; antibody 0.1 nM
T5 construct: Region 3 of human mesothelin, made in HEK293E cells, His-tagged; also called human MSLN-R3 protein; hMSLN-R3-his; not shown: His tag
T5 sequence (Q13421 495-606): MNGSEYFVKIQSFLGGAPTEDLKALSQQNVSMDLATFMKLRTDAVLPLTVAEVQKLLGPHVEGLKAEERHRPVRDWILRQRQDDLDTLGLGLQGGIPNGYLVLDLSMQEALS

[34] = target: T5, human MSLN-R3-his protein; assay: ELISA on coated MSLN-R3; antibody 100 nM
Protocol: as §1

[35] = target: T5, human MSLN-R3-his protein; assay: ELISA on coated MSLN-R3; antibody 0.01 nM
Protocol: as §1

[36] = target: T5, human MSLN-R3-his protein; assay: ELISA on coated MSLN-R3; antibody 1 nM
Protocol: as §1

[37] = target: T5, human MSLN-R3-his protein; assay: ELISA on coated MSLN-R3; antibody 0.001 nM
Protocol: as §1

[38] = target: T5, human MSLN-R3-his protein; assay: ELISA on coated MSLN-R3; antibody 10 nM
Protocol: as §1

[39] = target: T5, human MSLN-R3-his protein; assay: ELISA on coated MSLN-R3; no antibody (blank)
[40] = target: T5, human MSLN-R3-his protein; assay: ELISA on coated MSLN-R3; antibody 0.0001 nM
Protocol: as §1

Row | OD450 [1] | OD450 [2] | OD450 [3] | OD450 [4] | OD450 [5] | OD450 [6] | OD450 [7] | OD450 [8] | OD450 [9] | OD450 [10] | OD450 [11] | OD450 [12] | OD450 [13] | OD450 [14] | OD450 [15] | OD450 [16] | OD450 [20] [OD450] | OD450 [21] [OD450] | OD450 [23] [OD450] | OD450 [26] [OD450] | Binder | also measured
1 |  |  |  |  |  |  |  |  |  |  |  |  |  |  |  |  | 0.31 | 0.09 | 1.85 | 0.05 | S009-F8-7.5 (antibody, human IgG1, kappa, V domains shown) VH: DVQLQESGPGLVKPSQSLSLTCSVTGYSITSGYYWNWIRQFPGNKLEWMAYIRYDGSNNYNPSLKNRISIIRDTSKNQFFLRLNSVTTEDTATYYCAKSYYGMDDWGQGISVTVSS VL: DIQMTQSPASLSASVGETVTITCRTSGDIHNYLAWYQQKQGKSPQLLVYKAKTLENGVPSRFTGSGSGTQFSLKIDSLQPEDFGTYYCQHFWTTPYTFGGGTKLEIKR | OD450 [17]: 0.05 OD450; OD450 [18]: 0.04 OD450; OD450 [19]: 0.06 OD450; OD450 [22]: 0.05 OD450; OD450 [24]: 0.05 OD450; OD450 [25]: 0.12 OD450; OD450 [27]: 0.05 OD450; OD450 [28]: 1.18 OD450; OD450 [29]: 2.18 OD450; OD450 [30]: 0.06 OD450; OD450 [31]: 2.32 OD450; OD450 [32]: 0.04 OD450
2 |  |  |  |  |  |  |  |  |  |  |  |  |  |  |  |  | 0.04 | 0.04 | 0.04 | 0.04 | Tab106 (YP218, hIgG1) (antibody, V domains shown, also called YP218 human IgG1 antibody) VH: QQQLEESGGGLVKPEGSLTLTCKASGFDLGFYFYACWVRQAPGKGLEWIACIYTAGSGSTYYASWAKGRFTISKASSTTVTLQMTSLAAADTATYFCARSTANTRSTYYLNLWGPGTLVTVSS VL: DVVMTQTPASVSEPVGGTVTIKCQASQRISSYLSWYQQKPGQRPKLLIFGASTLASGVPSRFKGSGSGTEYTLTISDLECADAATYYCQSYAYFDSNNWHAFGGGTEVVVRT | OD450 [33]: 1.38 OD450; OD450 [34]: 2.28 OD450; OD450 [35]: 0.52 OD450; OD450 [36]: 1.99 OD450; OD450 [28]: 0.04 OD450; OD450 [37]: 0.14 OD450; OD450 [29]: 0.06 OD450; OD450 [38]: 1.81 OD450; OD450 [30]: 0.04 OD450; OD450 [39]: 0.04 OD450; OD450 [31]: 0.22 OD450; OD450 [40]: 0.09 OD450

Second part, the binder before the results:

Row | Binder | OD450 [1] | OD450 [2] | OD450 [3] | OD450 [4] | OD450 [5] | OD450 [6] | OD450 [7] | OD450 [8] | OD450 [9] | OD450 [10] | OD450 [11] | OD450 [12] | OD450 [13] | OD450 [14] | OD450 [15] | OD450 [16] | OD450 [20] [OD450] | OD450 [21] [OD450] | OD450 [23] [OD450] | OD450 [26] [OD450] | also measured
3 | S009-F7.66.12 chimeric antibody (antibody, human IgG1, kappa, V domains shown, Human-murine chimeric antibody, human IgG1/kappa constant regions) VH: QIPLQQSGPELVKPGASVRISCKASDYAFSSSWMNWVKQRPEKGLEWIGRIFVESGNTHYNDKFNGKATLTADKSSRTAYIQLSSLTSEDSAVYFCTRENIFYHGHSSWFAYWGQGTLVTVSA VL: DIVLTQSPASLVVSLGQRATISCRAGESVDDFGISYVHWYQQKPGQPPKLLIYRAANLESGIPARFSGSGSRTDFTLTINPVETDDVAIYYCQQNNKDPFTFGSGTKLEIKR | 2.1 | 1.19 | 0.05 | 1.77 | 0.77 | 0.13 | 0.06 | 0.04 | 0.06 | 0.04 | 2.2 | 2.24 | 0.04 | 0.07 | 0.06 | 2.23 |  |  |  |  | 
4 | S009-F7.69.8 chimeric antibody (antibody, human IgG1, kappa, V domains shown, Human-murine chimeric antibody, human IgG1/kappa constant regions) VH: EVHLQQSGPELVKPGASVRIPCKASGYTFTDYNMDWVKQSHGKSLEWIGDINPDNGGTIYTQKFKGKATLTVDKSSSTAYMELRSLTSEDTAVYYCARRLHYYGSSGLDYWGQGTTLTVSS VL: DIQMTQSPASLSAYVGETVTITCRASGNIHNYLAWYQQKQGKSPQLLVYNAKTLADGVPSRFSGSGSGTQYSLKINSLQPEDFGSYYCQHFWSTVWTFGGGTKLEIKR | 2.1 | 0.43 | 0.04 | 1.42 | 0.13 | 0.11 | 0.06 | 0.05 | 0.07 | 0.05 | 2.26 | 2.15 | 0.04 | 0.06 | 0.05 | 2.29 |  |  |  |  | 
5 | S009-F7.67.12 chimeric antibody (antibody, human IgG1, kappa, V domains shown, Human-murine chimeric antibody, human IgG1/kappa constant regions) VH: QVQLQQPGTELVKPGASVRLSCRASGYSFSSYWMHWVKQRPGQGLEWLGNINPTTGDINYNEKFRNRATLAVDKSSTTAYLQLTSLTSEDSAVYFCVRHDGFLWGQGTTLTVSS VL: DIQMTQSPASLSASVGETVTITCRASENIYSYLAWYQQKQGKSPQLLVYYAKTLAEGVSSRFSGSGSGTQFSLKINSLQPEDFGTYYCQHQFGTPRTFGGGTKLEIRR | 1.96 | 0.23 | 0.05 | 0.75 | 0.13 | 0.07 | 0.05 | 0.05 | 0.07 | 0.05 | 2.23 | 1.78 | 0.05 | 0.05 | 0.04 | 2.07 |  |  |  |  | 
